Measurements: PMC4493910, “Cryo-EM structure of the bacteriophage T4 portal protein assembly at near-atomic resolution” (Nature Communications, 2015)

Key:
[1] = biological target: bacteriophage T4 major capsid protein gp23 (bacteriophage T4); test: cryo-EM structure; purified emptied prolate heads of a gp13 amber mutant in 50 mM Tris pH 7.5, 1 mM MgCl2, 100 mM NaCl; fivefold symmetry, 10 Å; gp20 structure and a gp23 model fitted into the map
[2] = biological target: gp20 mutant in which the tunnel loop (residues 377–388) had been deleted (bacteriophage T4); test: cryo-EM 2D classification of particles; oligomeric states counted in cryo-EM data of purified portals; gp20-N74 after a single gel filtration (narrow 500 μl fraction)
[3] = biological target: bacteriophage T4 portal protein gp20, construct gp20-N74 (residues 74–524) (bacteriophage T4) (UniProt P13334); test: as above
[4] = biological target: bacteriophage T4 portal protein gp20, construct gp20-N74 (residues 74–524) (bacteriophage T4) (UniProt P13334); test: cryo-EM structure; single particles of gp20-N74 after two gel filtrations, 1 mg/ml in 20 mM Tris-HCl pH 7.8, 400 mM NaCl, 5 mM EDTA, 0.3% octyl-β-glucoside; 12-fold symmetry imposed, 3.6 Å
[5] = biological target: the molecule itself; test: cryo-EM structure; purified emptied prolate heads of a gp13 amber mutant in 50 mM Tris pH 7.5, 1 mM MgCl2, 100 mM NaCl; fivefold symmetry, 10 Å; gp20 structure and a gp23 model fitted into the map

**Q.** For “bacteriophage T4 major capsid protein gp23 (natural protein)”, which stoichiometry N [1] is on record?
**A.** The stoichiometry N was 6.

**Q.** Which results are given for “gp20 mutant in which the tunnel loop (residues 377–388) had been deleted (domain or fragment)”?
**A.** percent of particles that are 11-mers [2]: 28%; percent of particles that are 13-mers [2]: 4%

**Q.** Which results are given for “bacteriophage T4 portal protein gp20, construct gp20-N74 (residues 74–524) (from UniProt P13334 74-524) (domain or fragment)”?
**A.** percent of particles that are 11-mers [3]: 0.1%; percent of particles that are 12-mers [3]: 90%; percent of particles that are 13-mers [3]: 9.9%; percent of particles that are 12-mers [4]: 95%; percent of particles that are 13-mers [4]: 5%; stoichiometry N [4]: 12

B1: bacteriophage T4 vertex protein gp24 (natural protein, UniProt P19896 11-427, looked up)
chain: STTTNSNSIGRPNLVALTRATTKLIYSDIVATQRTNQPVAAFYGIKYLNPDNEFTFKTGATYAGEAGYVDREQITELTEESKLTLNKGDLFKYNNIVYKVLEDTPFATIEESDLELALQIAIVLLKVRLFSDAASTSKFESSDSEIADARFQINKWQTAVKSRKLKTGITVELAQDLEANGFDAPNFLEDLLATEMADEINKDILQSLITVSKRYKVTGITDSGFIDLSYASAPEAGRSLYRMVCEMVSHIQKESTYTATFCVASARAAAILAASGWLKHKPEDDKYLSQNAYGFLANGLPLYCDTNSPLDYVIVGVVENIGEKEIVGSIFYAPYTEGLDLDDPEHVGAFKVVVDPESLQPSIGLLVRYALSANPYTVAKDEKEARIIDGGDMDKMAGRSDLSVLLGVKLPKIIIDE
notes: capsid vertex protein gp24 of bacteriophage T4, as present in fully expanded heads; source: emptied prolate heads of a T4 gp13 amber mutant, purified
**Q.** For B1, which “stoichiometry N” value [5] is on record?
**A.** The value was 5.
